Consider two molecules from publication doi:10.1101/2021.12.30.474394.

For one test, the target named is mutant CycT14MUT(280) (UniProt O60563). Put plainly: co-IP.
Another test addresses mutant CycT14MUT (UniProt O60563). Description: co-IP.

B1: DN Siah1C75S (enzyme)
chain: MSRQTATALPTGTSKCPPSQRVPALTGTTASNNDLASLFECPVCFDYVLPPILQCQSGHLVCSNCRPKLTCCPTSRGPLGSIRNLAMEKVANSVLFPCKYASSGCEITLPHTEKADHEELCEFRPYSCPCPGASCKWQGSLDAVMPHLMHQHKSITTLQGEDIVFLATDINLPGAVDWVMMQSCFGFHFMLVLEKQEKYDGHQQFFAIVQLIGTRKQAENFAYRLELNGHRRRLTWEATPRSIHEGIATAIMNSDCLVFDTSIAQLFAENGNLGINVTISMC
B1: the fold change of co-IP against WT CycT1(280) with mutant CycT14MUT(280) is 5.1 fold. Moreover, the fold change of co-IP against WT CycT1 with mutant CycT14MUT is 5.7 fold.

B2: WT Siah2 (enzyme)
chain: MSRPSSTGPSANKPCSKQPPPQPQHTPSPAAPPAAATISAAGPGSSAVPAAAAVISGPGGGGGAGPVSPQHHELTSLFECPVCFDYVLPPILQCQAGHLVCNQCRQKLSCCPTCRGALTPSIRNLAMEKVASAVLFPCKYATTGCSLTLHHTEKPEHEDICEYRPYSCPCPGASCKWQGSLEAVMSHLMHAHKSITTLQGEDIVFLATDINLPGAVDWVMMQSCFGHHFMLVLEKQEKYEGHQQFFAIVLLIGTRKQAENFAYRLELNGNRRRLTWEATPRSIHDGVAAAIMNSDCLVFDTAIAHLFADNGNLGINVTISTCCP
With B2, the fold change of co-IP against WT CycT1(280) with mutant CycT14MUT(280) turned out to be 8.9 fold. For the same molecule, in the test with mutant CycT14MUT, the fold change of co-IP against WT CycT1 amounted to 8.3 fold.
